The record followed here is paper PMC8710476 (Frontiers in Immunology, 2021).

In the assay the target is Recombinant SARS-CoV-2 RBD (residues R319–F541) (SARS-CoV-2, UniProt P0DTC2). Nature of the assay: SPR. As to conditions: both partners purified.

B1: REGN10987 (class III) (antibody, V domains shown)
VH: QVQLVESGGGVVQPGRSLRLSCAASGFTFSNYAMYWVRQAPGKGLEWVAVISYDGSNKYYADSVKGRFTISRDNSKNTLYLQMNSLRTEDTAVYYCASGSDYGDYLLVYWGQGTLVTVSS
VL: QSALTQPASVSGSPGQSITISCTGTSSDVGGYNYVSWYQQHPGKAPKLMIYDVSKRPSGVSNRFSGSKSGNTASLTISGLQSEDEADYYCNSLTSISTWVFGGGTKLTVL
B1: the Kd – broadly, the free concentration of one partner at which half of the binding sites on the other are occupied at equilibrium, for simple one-to-one binding – was under 0.01 nM.
